Data as given in patent publication US20120277164A1 (IMPERIAL INNOVATIONS, published 2012).

Key:
[1] = target: T1, MKK7KD (constitutively active kinase domain of MKK7, residues 101 to 405, S287D and T291D, His6 fusion) (UniProt O14733-3 101-405); assay: SPR (Biacore 3000), Gadd45β immobilized, MKK7KD injected at 1-25 nM
T1 construct: range 101-405; also called MKKKD; not shown: His6 tag
T1 sequence (looked up): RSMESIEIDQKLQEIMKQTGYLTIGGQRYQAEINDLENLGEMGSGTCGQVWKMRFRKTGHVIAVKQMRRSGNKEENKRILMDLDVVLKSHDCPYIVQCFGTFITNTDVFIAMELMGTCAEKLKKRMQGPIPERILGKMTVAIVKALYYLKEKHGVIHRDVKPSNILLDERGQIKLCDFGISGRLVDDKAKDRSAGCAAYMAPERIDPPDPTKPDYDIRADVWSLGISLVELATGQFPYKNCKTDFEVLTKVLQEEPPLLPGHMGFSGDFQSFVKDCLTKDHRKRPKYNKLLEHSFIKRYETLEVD
Method: On another channel the same procedure of activation with EDC/NHS and inactivation with ethanolamine was performed.

[2] = target: T1, MKK7KD (constitutively active kinase …); assay: SPR (Biacore 3000), MKK7KD immobilized, Gadd45β injected at 20-200 nM
[3] = target: T2, Gadd45β/MKK7 complex (biotin-hGadd45β with coated GST-MKK7, ELISA format) (human, UniProt O75293 1-160; O14733 1-419, biotinylated (sites not given)); assay: competition ELISA; coated GST-MKK7, biotin-hGadd45β; single dose
T2 construct: not shown: glutathione S-transferase (GST) fusion partner
T2 sequence (looked up) 1: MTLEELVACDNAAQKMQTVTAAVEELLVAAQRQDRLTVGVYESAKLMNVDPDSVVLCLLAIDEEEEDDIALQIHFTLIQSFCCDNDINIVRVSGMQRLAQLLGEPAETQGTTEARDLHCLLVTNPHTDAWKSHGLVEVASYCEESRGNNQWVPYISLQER
T2 sequence (looked up) 2: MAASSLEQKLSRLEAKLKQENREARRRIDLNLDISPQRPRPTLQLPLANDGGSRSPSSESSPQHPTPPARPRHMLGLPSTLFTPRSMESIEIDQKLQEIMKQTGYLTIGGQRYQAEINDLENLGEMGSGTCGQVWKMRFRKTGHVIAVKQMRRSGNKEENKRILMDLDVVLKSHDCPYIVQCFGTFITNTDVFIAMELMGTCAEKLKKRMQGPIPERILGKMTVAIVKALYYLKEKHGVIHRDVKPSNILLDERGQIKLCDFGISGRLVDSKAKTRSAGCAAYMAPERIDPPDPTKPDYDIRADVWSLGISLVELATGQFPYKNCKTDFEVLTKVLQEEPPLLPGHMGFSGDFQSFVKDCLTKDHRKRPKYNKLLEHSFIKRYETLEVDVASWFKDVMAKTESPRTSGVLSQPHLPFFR

[4] = target: T2, Gadd45β/MKK7 complex (biotin-hGadd45β …); assay: ELISA competition: coated GST-MKK7 (42 nM), soluble biotin-hGadd45β (21 nM), increasing peptide; read-out % binding of biotin-hGadd45β to MKK7

B1: Full length human Gadd45β (other, UniProt O75293 1-160, looked up)
chain: T2 sequence (looked up) 1
notes: also called Gadd45β (SPR)
Kd [1]: 3.4 nM
Kd [2]: 4 nM

B2: Ac-YDHF-NH2 (peptide)
peptide: Ac-YDHF-NH2
notes: also called Ac-LTP1; LTP1
% Inhibition of Gadd45β-MKK7 binding [3]: 94%
IC50 [4]: 0.4 nM

B3: Ac-YERF-NH2 (peptide)
peptide: Ac-YERF-NH2
notes: also called Ac-LTP2; LTP2
% Inhibition of Gadd45β-MKK7 binding [3]: 93%
IC50 [4]: 0.4 nM
